Laboratory results from publication PMC9876794 (2022).

Molecular target: SARS-CoV-2 spike RBD (WT) (Severe acute respiratory syndrome …, UniProt P0DTC2)
Assay: ELISA
Design: unit not given here

B1: D087 (antibody, V domains shown)
VH: QVQLVQSGAEVKKPGASVKVSCKASGYTFTNYDFNWVRQAPGQGLEWMGWMNPNSGNTGYAQKFQGRVTITRNTSINTAYMELSSLRSEDTAVYYCARAPDCSSFSCSYYFDYWGQGTLVTVSS
VL: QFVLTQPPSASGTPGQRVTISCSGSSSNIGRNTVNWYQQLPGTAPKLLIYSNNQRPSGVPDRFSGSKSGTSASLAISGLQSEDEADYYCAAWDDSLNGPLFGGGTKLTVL
binding score: > 10000

B2: D181 (antibody, V domains shown)
VH: QVQLQESGPGLVKPSQTLSLTCTVSGGSISSGGYYWSWIRQHPGKGLEWIGYIYYSGSTYYNPSLKSRVTISVDTSKNQFSLKLSSVTAADTAVYYCARDRMEIYYDSSGYHPGPFDYWGQGTLVTVSS
VL: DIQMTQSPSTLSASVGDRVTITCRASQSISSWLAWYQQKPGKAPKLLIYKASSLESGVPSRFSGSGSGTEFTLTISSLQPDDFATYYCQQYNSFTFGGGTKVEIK
binding score: > 10000

B3: D090 (antibody, V domains shown)
VH: EVQLVESGGGLVQPGRSLRLSCAASGFTFDDYAMHWVRQAPGKGLEWVSGISWNSGSIGYADSVKGRFTISRDNAKNSLYLQMNSLRAEDMALYYCAKGLPYSSSWYDAFDIWGQGTMVTVSS
VL: not shown
binding score: > 10000

B4: D119 (antibody, V domains shown)
VH: QLQLQESGPGLVKPSETLSLTCTVSGGSISSSSYYWGWIRQPPGKGLEWIGSIYYSGSTYYNPSLKSRVTISVDTSKNQFSLKLSSVTAADTAVYYCARLYSSGWYAFISWGQGTLVTVSS
VL: not shown
binding score: > 10000

B5: D011 (antibody, V domains shown)
VH: EVQLVESGGGLVQPGRSLRLSCAASGFTFDDYAMHWVRQAPGKGLEWVSGISWNSGSIGYADSVKGRFTISRDNAKNSLYLQMNSLRAEDTALYYCAKGDSSGYYFAYEDYGMDVWGQGTTVTVSS
VL: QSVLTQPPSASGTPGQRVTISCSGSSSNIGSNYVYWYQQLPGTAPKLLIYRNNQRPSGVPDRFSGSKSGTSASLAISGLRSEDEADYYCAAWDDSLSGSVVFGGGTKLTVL
binding score: > 10000

B6: D133 (antibody, V domains shown)
VH: EVQLVESGGGLVQPGGSLRLSCAASGFTFSSYDMHWVRQATGKGLEWVSAIGTAGDTYYPGSVKGRFTISRENAKNSLYLQMNSLRAGDTAVYYCARGTTVSQQYPSGIPYYYGMDVWGQGTTVTVSS
VL: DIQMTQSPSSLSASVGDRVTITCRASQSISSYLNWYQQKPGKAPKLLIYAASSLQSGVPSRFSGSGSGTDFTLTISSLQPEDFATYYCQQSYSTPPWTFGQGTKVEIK
binding score: > 10000

B7: D187 (antibody, V domains shown)
VH: QVQLVQSGAEVKKPGSSVKVSCKASGGTFSSYAISWVRQAPGQGLEWMGGIIPIFGTANYAQKFQGRVTITADESTSTAYMELSSLRSEDTAVYYCATRGWSGYQTMQKNAFDIWGQGTMVTVSS
VL: not shown
binding score: > 10000

B8: D135 (antibody, V domains shown)
VH: EVQLVESGGGLIQPGGSLRLSCAASGFTVSSNYMTWVRQAPGKGLEWVSLIYSGGSTYYTDSVKGRFTISRDNSKNTLYLQMNSLRAEDTAVYYCARLLITMVRGVISSGLDYWGQGTLVTVSS
VL: EIVLTQSPGTLSLSPGERATLSCRASQSVSSSYLAWYQQRPGQPPRLLIYGASSRATGIPDRFSDSGSGTDFTLTISRLEPEDFAVYYCQQYGSSPPITFGQGTRLDIK
binding score: 1110

B9: D116 (antibody, V domains shown)
VH: EVQLVESGGGLVLPGGSLRLSCVASGFTFSSYWMTWVRQAPGKGLEWVANIQRDGREKYYVDSLKGRFSISRDNDKNSLYLQMNNLRAEDTGVYYCARAQTCTTCSSPNWFDPWGQGTLVTVSS
VL: QSVLTQPASVSGSPGQSITISCTGTSSDVGSYNLVSWYQQHPGKAPKLIIYEGSKRPSGVSNRFSGSKSGNTASLTISGLQAEDEADYYCCSYAGSNTLVFGGGTKVTVL
binding score: > 10000

B10: D130 (antibody, V domains shown)
VH: EVQLVESGGGLVQPGRSLRLSCAASGFTFDDYAMHWVRQAPGKGLEWVSGISWNSGSIGYADSVKGRFTISRDNAKNSLYLQMNSLRAEDTALYYCAKSGLYGDYDAAFDYWGQGTLVTVSS
VL: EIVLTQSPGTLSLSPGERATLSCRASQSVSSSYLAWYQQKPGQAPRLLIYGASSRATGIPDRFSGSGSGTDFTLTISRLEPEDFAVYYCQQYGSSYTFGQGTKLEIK
binding score: > 10000

B11: D134 (antibody, V domains shown)
VH: EVQLVESGGGVVQPGGSLRLSCAASGFTFDDYAMHWVRQAPGKGLEWVSLISGDGGSTYYADSVKGRFTISRDNSKNSLYLQMNSLRTEDTALYYCANGERGGNPRGGYYYYGMDVWGQGTTVTVSS
VL: EIVLTQSPATLSLSPGERATLSCRASQSVSSYLAWYQQKPGQAPRLLIYDASNRATGIPARFSGSGSGTDFTLTISSLEPEDFAVYYCQQRSNWPPYTFGQGTKLEIK
binding score: > 10000
